Experiments:
[1] = molecular target: ParE2 toxin of Mycobacterium tuberculosis H37Rv (Mycobacterium tuberculosis H37Rv) (UniProt P9WHG5); test: crystal structure
[2] = molecular target: ParE2 toxin of Mycobacterium tuberculosis H37Rv (Mycobacterium tuberculosis H37Rv) (UniProt P9WHG5); test: SEC

For “ParD2 antitoxin of Mycobacterium tuberculosis H37Rv (natural protein)”, which stoichiometry N (ParD2 per ParE2 (1:1 heterodimer)) [1] is on record?
The stoichiometry N (ParD2 per ParE2 (1:1 heterodimer)) was 1.

What about the stoichiometry N (ParD2 per ParE2 (2:2 heterotetramer)) [2] of the same substance?
The stoichiometry N (ParD2 per ParE2 (2:2 heterotetramer)) was 1.

Reference: paper PMC10899793, “Toxin release by conditional remodelling of ParDE1 from Mycobacterium tuberculosis leads to gyrase inhibition” (Nucleic Acids Research, 2023)
